Reference: PMC10903946 (Genes & Development, 2024)

Target: T1, mCherry-LacR-MITF (human, UniProt O75030-9 1-419)
T1 sequence: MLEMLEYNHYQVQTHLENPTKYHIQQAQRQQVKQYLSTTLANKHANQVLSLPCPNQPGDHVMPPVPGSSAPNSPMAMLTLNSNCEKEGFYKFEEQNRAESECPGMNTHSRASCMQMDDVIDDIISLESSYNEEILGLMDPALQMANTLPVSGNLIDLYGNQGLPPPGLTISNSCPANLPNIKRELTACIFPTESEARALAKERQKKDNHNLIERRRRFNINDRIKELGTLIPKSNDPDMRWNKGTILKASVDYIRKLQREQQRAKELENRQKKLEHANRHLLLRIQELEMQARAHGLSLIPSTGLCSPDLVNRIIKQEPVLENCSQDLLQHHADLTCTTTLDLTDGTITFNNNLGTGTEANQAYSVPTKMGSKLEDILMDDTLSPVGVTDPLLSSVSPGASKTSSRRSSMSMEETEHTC
Test: LacR/LacO nuclear tethering assay

B1: NBS1-GFP (natural protein)
chain: MWKLLPAAGPAGGEPYRLLTGVEYVVGRKNCAILIENDQSISRNHAVLTANFSVTNLSQTDEIPVLTLKDNSKYGTFVNEEKMQNGFSRTLKSGDGITFGVFGSKFRIEYEPLVACSSCLDVSGKTALNQAILQLGGFTVNNWTEECTHLVMVSVKVTIKTICALICGRPIVKPEYFTEFLKAVESKKQPPQIESFYPPLDEPSIGSKNVDLSGRQERKQIFKGKTFIFLNAKQHKKLSSAVVFGGGEARLITEENEEEHNFFLAPGTCVVDTGITNSQTLIPDCQKKWIQSIMDMLQRQGLRPIPEAEIGLAVIFMTTKNYCDPQGHPSTGLKTTTPGPSLSQGVSVDEKLMPSAPVNTTTYVADTESEQADTWDLSERPKEIKVSKMEQKFRMLSQDAPTVKESCKTSSNNNSMVSNTLAKMRIPNYQLSPTKLPSINKSKDRASQQQQTNSIRNYFQPSTKKRERDEENQEMSSCKSARIETSCSLLEQTQPATPSLWKNKEQHLSENEPVDTNSDNNLFTDTDLKSIVKNSASKSHAAEKLRSNKKREMDDVAIEDEVLEQLFKDTKPELEIDVKVQKQEEDVNVRKRPRMDIETNDTFSDEAVPESSKISQENEIGKKRELKEDSLWSAKEISNNDKLQDDSEMLPKKLLLTEFRSLVIKNSTSRNPSGINDDYGQLKNFKKFKKVTYPGAGKLPHIIGGSDLIAHHARKNTELEEWLRQEMEVQNQHAKEESLADDLFRYNPYLKRRR
- median enrichment of GFP at the mCherry dot over the rest of the nucleus: 7 fold
